Series [1] deals with the molecule itself. The experiment in a line: crystal structure; gB ectodomain; 0.1 M Na acetate pH 4.6, 20% PEG 400, 6% ethylene glycol, room temperature vapor diffusion.
Series [2] concerns the target T1, native, full-length VZV gB purified from VZV infected MeWo cells (varicella-zoster virus (parental Oka …, UniProt Q4JR05, N-linked glycosylation (sites in S4 Table))).
T1 construct: VZV glycoprotein B (ORF31), parental Oka strain, residues up to 931; 71-residue signal peptide; native gB is cleaved by furin at 491RSRR494 into two fragments; residues 115-736 resolved in the cryo-EM structure; Held in Amphipol 8-35; also called glycoprotein B; native, full-length gB; not shown: V5, C-terminal, cleaved
The experiment in a line: cryo-EM structure; Fab fragments added in molar excess to native, full-length gB in TBS pH7.4 with Amphipol 8-35, overnight at +4°C; complexes purified on Superose-6 in TBS pH7.4; 200kV F20 microscope. The settings on record: both partners purified.

Series [3] deals with T2, VZV gB wild type expressed from pCAGGS-gB in CHO-DSP1 cells (varicella-zoster virus, UniProt Q4JR05).
T2 construct: VZV glycoprotein B (ORF31) expressed from pCAGGS-gB; detected by an antiserum to residues 833-846 of the cytoplasmic region; also called WT gB; gB-WT; source: CHO-DSP1, transfected (pCAGGS-gB), in lysate; also on fixed transfected cells
The experiment in a line: western blot; reducing, denaturing SDS-PAGE of anti-V5 immunoprecipitates from transfected CHO-DSP1 cells, blot probed with mAb 93k. The note with it: one partner purified.

Series [4] concerns the molecule itself. The experiment in a line: cryo-EM structure; native, full-length gB without antibody, in Amphipol 8-35, TBS pH7.4; 300kV Titan Krios; C3 symmetry imposed.

B1: VZV gB ectodomain used for X-ray crystallography (domain or fragment, varicella-zoster virus (Oka strain), UniProt Q4JR05 72-736, looked up)
chain: VSPSSFYESLQVEPTQSEDITRSAHLGDGDEIREAIHKSQDAETKPTFYVCPPPTGSTIVRLEPPRTCPDYHLGKNFTEGIAVVYKENIAAYKFKATVYYKDVIVSTAGAGSSGTQITNRYADRVPIPVSEITDTIDKFGKCSSKATYVRNNHKVEAFNEDKNPQDMPLIASKYNSVGSKAWHTTNDTYMVAGTPGTYRTGTSVNCIIEEVEARSIFPYDSFGLSTGDIIYMSPFFGLRDGAYREHSNYAMDRFHQFEGYRQRDLDTRALLEPAARNFLVTPHLTVGWNWKPKRTEVCSLVKWREVEDVVRDEYAHNFRFTMKTLSTTFISETNEFNLNQIHLSQCVKEEARAIINRIYTTRYNSSHVRTGDIQTYLARGGFVVVFQPLLSNSLARLYLQELVRENTNHSPQKHPTRNTGSGGSVPVELRANRTITTTSSVEFAMLQFTYDHIQEHVNEMLARISSSWCQLQNRERALWSGLFPINPSALASTILDQRVKARILGDVISVSNCPELGSDTRIILQNSMRVSGSTTRCYSRPLISIVSLNGSGTVEGQLGTDNELIMSRDLLEPCVANHKRYFLFGHHYVYYEDYRYVREIAVHDVGMISTYVDLNLTLLKDREFMPLQVYTRDELRDTGLLDYSEIQRRNQMHSLRFYDIDKVVQ
modifications: N-linked glycosylation (sites in S4 Table)
notes: VZV glycoprotein B (ORF31), Oka strain, codon-modified; residues 72-736, without the 71 amino acid signal peptide; residues 115-736 resolved in the crystal; also called truncated gB; truncated VZV gB; source: HEK293 GnTI- cells, transiently transfected (pCMV-III), purified (Ni-NTA, ion-exchange, Superdex 200)
For orientation: stoichiometry N means the number of molecules, sites or subunits per partner or assembly. As for B1, the “stoichiometry N” value in series [1] was determined as 3.

B2: Fab fragment of the neutralizing human mAb 93k (Fab, V domains shown)
VH: QVQLVQSGAEVKKPGSSVKVSCKASGGTFSNFAISWVRQAPGQGLEWMGRIMPLFVTSTYAQKFQGRVTISADASTSTAYMELSSLRSDDTAMYYCARDITAPGAAPTPLNFYGMDVWGQGTTVTVSS
VL: DIQMTQSPSTLSASVGDRVTITCRASQTISTWLAWYQQTPRKAPKLMIYKASILENGVPSRFSGSGSGTEFTLTISSLQPEDFATYYCQQYKSYPWTFGQGTKVEI
notes: map of gB-93k deposited here as EMD-22519; I53 of the VL chain is named; also called 93k Fab
Regarding B2, the binding result in series [2] was “binds”.

B3: human neutralizing monoclonal antibody 93k (antibody, V domains shown)
VH: B2 VH
VL: B2 VL
notes: variable part as the heavy chain of m12; as the light chain of m12; Human IgG (detected with anti-human IgG); also called mAb 93k
In the case of B3, the binding result in series [3] was “binds”.

B4: native, full-length VZV gB purified from VZV infected MeWo cells (natural protein)
chain: VSPSSFYESLQVEPTQSEDITRSAHLGDGDEIREAIHKSQDAETKPTFYVCPPPTGSTIVRLEPPRTCPDYHLGKNFTEGIAVVYKENIAAYKFKATVYYKDVIVSTAWAGSSYTQITNRYADRVPIPVSEITDTIDKFGKCSSKATYVRNNHKVEAFNEDKNPQDMPLIASKYNSVGSKAWHTTNDTYMVAGTPGTYRTGTSVNCIIEEVEARSIFPYDSFGLSTGDIIYMSPFFGLRDGAYREHSNYAMDRFHQFEGYRQRDLDTRALLEPAARNFLVTPHLTVGWNWKPKRTEVCSLVKWREVEDVVRDEYAHNFRFTMKTLSTTFISETNEFNLNQIHLSQCVKEEARAIINRIYTTRYNSSHVRTGDIQTYLARGGFVVVFQPLLSNSLARLYLQELVRENTNHSPQKHPTRNTRSRRSVPVELRANRTITTTSSVEFAMLQFTYDHIQEHVNEMLARISSSWCQLQNRERALWSGLFPINPSALASTILDQRVKARILGDVISVSNCPELGSDTRIILQNSMRVSGSTTRCYSRPLISIVSLNGSGTVEGQLGTDNELIMSRDLLEPCVANHKRYFLFGHHYVYYEDYRYVREIAVHDVGMISTYVDLNLTLLKDREFMPLQVYTRDELRDTGLLDYSEIQRRNQMHSLRFYDIDKVVQYDSGTAIMQGMAQFFQGLGTAGQAVGHVVLGATGALLSTVHGFTTFLSNPFGALAVGLLVLAGLVAAFFAYRYVLKLKTSPMKALYPLTTKGLKQLPEGMDPFAEKPNATDTPIEEIGDSQNTEPSVNSGFDPDKFREAQEMIKYMTLVSAAERQESKARKKNKTSALLTSRLTGLALRNRRGYSRVRTENVTGV
modifications: N-linked glycosylation (sites in S4 Table)
notes: VZV glycoprotein B (ORF31), parental Oka strain, residues up to 931; 71-residue signal peptide; native gB is cleaved by furin at 491RSRR494 into two fragments; residues 115-736 resolved in the cryo-EM structure; Held in Amphipol 8-35; also called glycoprotein B; native, full-length gB; not shown: V5, C-terminal, cleaved
Regarding B4, the “stoichiometry N” value in series [4] was 3.

These data come from paper PMC7817050 (PLoS Pathogens, 2021).
